Results: patent US20240279357A1 (THERINI BIO, published 2024)
Positions count from the first letter of the chain named.

T1: P2 peptide comprising SEQ ID NO: 31 (human fibrin γ377-395) (human)
T1 construct: Bought (CPC Scientific 920712); also called human P2 peptide
T1 peptide: YSMKKTTMKIIPFNRLTIG

B1: humanized VH5/Vκ2 antibody (antibody, IgG1, V domains shown)
VH: QVQLVQSGAEVKKPGSSVKVSCKASGYTFTSYWIHWVRQAPGQGLEWIGLIDPSDSYTNYNQKFRGRVTITRDTSTSTAYMELSSLRSEDTAVYYCASSDPTGCWGQGTTVTVSS
VL: DIVMTQAAFSNPVTPGTPASISCRSSKSLLHSSGITYLSWYLQKPGQSPQLLIYQMSNLASGVPDRFSSSGSGTDFTLKISRVEAEDVGVYYCAQNLELPLTFGQGTKLEIK
notes: IgG1; also called VH5/VK2; VH5Vk2
B2: humanized VH4/Vκ2 antibody (antibody, IgG1, V domains shown)
VH: B1 VH with R72V
VL: B1 VL
notes: IgG1; also called VH4/VK2; VH4Vk2
B3: humanized VH4/Vκ1 antibody (antibody, IgG1, V domains shown)
VH: B1 VH with R72V
VL: B1 VL with V13I, K79R
notes: Expressed as IgG1; also called VH4/VK1; VH4Vk1
B4: humanized VH6/Vκ2 antibody (antibody, IgG1, V domains shown)
VH: B1 VH with R65Q
VL: B1 VL
notes: Expressed as IgG1; also called VH6/VK2; VH6Vk2

Target: T1, P2 peptide comprising SEQ ID NO: 31 …
Test: ELISA on coated P2 peptide
Experimental: The humanized antibodies affinity for fibrinogen, fibrin and P2 peptide were assessed by Enzyme-linked immunosorbent assays (ELISA)s (FIGS. 7-16). ELISAs for fibrinogen binding were performed using plasminogen-depleted human Fibrinogen (EMD/Calbiochem). […] IgG1-depleted Fibrinogen (FGN) in 20 mM HEPES/Saline buffer was added to each well of half of a 96-well Nunc Maxisorp™ ELISA plate. The ELISAs for fibrin binding were prepared by adding 50 mL of 20 mM HEPES/Saline buffer containing 14 mM CaCl₂, and 2 units thrombin to each well of the second half of the Nunc Maxisorp™ ELISA plate. 50 mL of 20 mg fibrinogen in 20 mM HEPES/Saline buffer were then added to a total volume of 100 mL. Plates were placed in a 37° C. incubator for 1 hour to allow fibrinogen to clot into fibrin and subsequently placed overnight into a plate dryer at 37° C. overnight. The ELISAs for P2 peptide were prepared by addition of […] of 30 mM P2 peptide in 20 mM HEPES/Saline buffer to each well of a 96-well Nunc Maxisorp™ ELISA plate. Plates were transferred to the plate dryer and dried overnight at 37° C. All ELISAs were preformed using Nunc MaxiSorp 96-well ELISA plates. Blocking was performed using 100 mL 5% BSA in DPBS are incubated at RT for 1 hour. Plates were washed 5× in DPBS containing 0.05% Tween-20 (EL406 was used for the addition of wash buffer only). 50 mL of primary antibodies was diluted in 0.5% BSA in DPBS, and the primary antibodies were added to the plates and incubated for 2 hours at 37° C. Plates were washed 5× in DPBS/Tween. 100 mL secondary antibodies were diluted in 0.5% BSA in DPBS. The secondary antibodies were then added to the plates and incubated for 1 hour at RT. Afterwards, plates were washed 5× in DPBS/Tween. 100 mL of TMB/E substrate solution was added, and the reaction was stopped after 5 minutes with 1N HCl.

EC50 [nM] | Binder
~78.1 | B1
~85.1 | B2
~81.3 | B3
~110 | B4

Target: T1, P2 peptide comprising SEQ ID NO: 31 …
Test: SPR (Biacore) multicycle, steady state fit; purified IgG captured, P2 peptide analyte
Experimental: Multicycle kinetics analysis of the variants were also performed to determine antibody affinity. […] At the start of each cycle, antibodies were loaded onto Fc2, Fc3 and Fc4 of the anti-human capture chip (GE Healthcare, Little Chalfont, UK). IgGs were captured at a flow rate of 10 μl/min to give an immobilization level (RL) of ˜1674 RU, the theoretical value to obtain a RMax of ˜50 RU. The surface was then allowed to stabilize. Kinetic data was obtained with P2 peptide as analyte using a flow rate of […] to minimize any potential mass transfer effects. Multiple repeats of a blank and a repeat of three concentrations of the analyte were programmed into the kinetic run in order to check the stability of both the surface and analyte over the kinetic cycles. […] The association phase of the peptide was monitored for 20 seconds and the dissociation phase was monitored for 25 seconds. Regeneration of the anti-human capture surface was conducted using one injection of 3.8 M magnesium chloride. The signal from the reference channel Fc1 was subtracted from that of Fc2, Fc3 and Fc4 to correct for differences in non-specific binding to a reference surface, and the data was then analyzed using steady state analysis due to the low affinity interaction to P2 peptide.

Kd [µM] | Relative KD [fold against VH0/VK0] | Binder
122 | 1.88 | B1
79.2 | 1.22 | B2
86.2 | 1.33 | B3
132 | 2.04 | B4

Target: T1, P2 peptide comprising SEQ ID NO: 31 …
Test: SPR (Biacore) single cycle, steady state fit; IgG from HEK supernatant captured, P2 peptide analyte
Experimental: FIG. 18 illustrates the procedure used for the single cycle kinetics analysis. The Biacore T200 […] instrument was used for single cycle kinetics analysis with the control software v2.0.1, and evaluation software V3.0. The anti-human capture chip was used with a running buffer consisting of HBS-P+ buffer (pH 7.4) containing 0.1% BSA at 25° C. a flow rate of 30 μl/min. Neat HEK supernatants were used as ligand and loaded to ˜1674 RU at 10 μl/min. P2 peptide comprising SEQ ID NO: 31 (CPC Scientific 920712, Lot #CS-02-00350) was the analyte for the analysis. […] Regeneration was performed with MgCl₂. Antibodies were diluted in running buffer to a final concentration of 20 μg/ml, based on concentrations assessed by Octet titre. At the start of each cycle, antibodies were loaded onto Fc2, Fc3 and Fc4 of the anti-human capture chip (GE Healthcare, Little Chalfont, UK). IgGs were captured at a flow rate of 10 μl/min to give an immobilization level (RL) of ˜ 1674 RU, the theoretical value to obtain an RMax of ˜50 RU. The surface was then allowed to stabilize. Single cycle kinetic data was obtained with P2 peptide as the analyte at a flow rate of 30 μl/min to minimize any potential mass transport limitations. […] The signal from the reference channel Fc1 (no antibody) was subtracted from that of Fc2, Fc3 and Fc4 to correct for differences in non-specific binding to a reference surface. […] The association phase for the five injections of increasing concentrations of P2 peptide was monitored for 20 seconds each time and a single dissociation phase was measured for 25 seconds following the last injection analyte. Regeneration of the anti-human capture surface was conducted using one injection of 3.8 M magnesium chloride.

Kd [µM] | Relative KD [fold against VH0/VK0] | Binder
130 | 1.47 | B1
84.5 | 0.8 | B2
105 | 1.18 | B3
124 | 1.4 | B4
